Reference: IntAct's records for PubMed 17959776

B1: Nitrogen regulatory protein P-II (Synechococcus elongatus (strain PCC 7942)), P0A3F4 (parent)
chain: MKKIEAIIRPFKLDEVKIALVNAGIVGMTVSEVRGFGRQKGQTERYRGSEYTVEFLQKLKLEIVVEDAQVDTVIDKIVAAARTGEIGDGKIFVSPVDQTIRIRTGEKNADAI
partner: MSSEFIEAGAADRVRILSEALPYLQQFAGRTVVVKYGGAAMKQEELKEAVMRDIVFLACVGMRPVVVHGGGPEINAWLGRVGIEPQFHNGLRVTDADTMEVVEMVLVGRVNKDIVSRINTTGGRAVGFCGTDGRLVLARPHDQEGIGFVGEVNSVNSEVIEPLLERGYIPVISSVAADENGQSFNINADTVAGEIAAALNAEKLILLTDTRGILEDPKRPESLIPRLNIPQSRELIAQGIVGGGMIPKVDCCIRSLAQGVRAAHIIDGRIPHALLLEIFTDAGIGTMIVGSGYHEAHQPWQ
B2: Acetylglutamate kinase (Synechococcus elongatus (strain PCC 7942)), Q6V1L5 (parent)
chain: B1 partner

Variants of: B1
Details: with argb_syne7 argB, Q6V1L5

Effect of a mutation on the interaction, disrupting interaction strength:
S49D
S49A
S49E

Effect of a mutation on the interaction, disrupting interaction:
Y46A
F11A
R47A
R45A
E85A

Variants of: B1
Details: with argb_syne7 argB

Effect of a mutation on the interaction, disrupting interaction:
S49D

Variants of: B2
Details: with glnb_syne7 glnB, P0A3F4

Effect of a mutation on the interaction, disrupting interaction:
Q258A
R233A
R139A
I229A
R254A
L256A
